Results reported in paper doi:10.1101/283192.
Where a chain is given by its changes, count along the chain named. Numbers in names are those of the source.

Tests used:
Settings in all cases: remark: other sources report otherwise
[1] = target: T1, CHIP (carboxyl terminus of heat shock 70-interacting protein), wild type, His-tagged recombinant (human), Q9UNE7; assay: SEC-MALS
T1 chain: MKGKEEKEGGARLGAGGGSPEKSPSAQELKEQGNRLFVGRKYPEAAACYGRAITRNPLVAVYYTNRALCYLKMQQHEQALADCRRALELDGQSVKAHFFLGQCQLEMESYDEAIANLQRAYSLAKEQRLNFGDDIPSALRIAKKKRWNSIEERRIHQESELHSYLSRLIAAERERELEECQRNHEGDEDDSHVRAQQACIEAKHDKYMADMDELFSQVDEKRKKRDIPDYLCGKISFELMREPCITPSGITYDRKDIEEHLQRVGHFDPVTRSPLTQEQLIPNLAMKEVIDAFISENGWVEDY

[2] = target: T2, myc-CHIP wild type (pcDNA3-mycCHIP) (human), Q9UNE7; assay: native gel or EMSA
T2 chain: T1 chain

[3] = target: T3, CHIP-K30A, His-tagged recombinant (human), Q9UNE7; assay: SEC-MALS
T3 chain: T1 chain with K30A

[4] = target: T4, myc-CHIP-K30A (pcDNA3-mycCHIP-K30A) (human), Q9UNE7; assay: native gel or EMSA
T4 chain: T1 chain with K30A

B1: CHIP (carboxyl terminus of heat shock 70-interacting protein), wild type, His-tagged recombinant, Q9UNE7 1-303 (natural protein)
chain: T1 chain
[1]
  stoichiometry N: 2

B2: myc-CHIP wild type (pcDNA3-mycCHIP), Q9UNE7 1-303 (natural protein)
chain: T1 chain
[2]
  stoichiometry N: 2

B3: CHIP-K30A, His-tagged recombinant, Q9UNE7 1-303 (natural protein)
chain: T1 chain with K30A
[3]
  stoichiometry N: 2

B4: myc-CHIP-K30A (pcDNA3-mycCHIP-K30A), Q9UNE7 1-303 (natural protein)
chain: T1 chain with K30A
[4]
  stoichiometry N: 2
